Data taken from the supplement of paper PMC9170038.

Test system: MS2 coat protein
Experiment: apparent KD of MS2 coat protein; designed switch direction (-1 OFF switch, 1 ON switch): -1; higher = weaker reporter binding
Method in brief: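 Designed RNA switches with common flanks were transcribed on Illumina chips by stalled E. coli RNA polymerase and titrated with SNAP-549-labelled MS2 coat protein, from 0.7 or 1.5 nM doubling to 3 µM, in Tris-HCl pH 7.5 buffer with KCl, MgCl2, BSA, DTT, tRNA and Tween-20. Steps lasted 0.8–1.5 h (lowest) to 10–20 min (highest). Titrations ran without input, with 200 uM small-molecule ligand, or with an oligonucleotide input. Normalised cluster fluorescence was curve-fitted, and apparent KD is the per-design median over clusters.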

[1] = input ligand: microRNA oligo, concentration not stated
[2] = Eterna round: R95, input ligand: microRNA oligo, concentration not stated
[3] = Eterna round: R95, input ligand: FMN 200 uM
[4] = Eterna round: R95, input ligand: none

Sequence | apparent KD of MS2 coat protein (input ligand: FMN 200 uM) [nM] | apparent KD of MS2 coat protein [1] [nM] | apparent KD of MS2 coat protein (input ligand: none) [nM] | apparent KD of MS2 coat protein [2] [nM] | apparent KD of MS2 coat protein [3] [nM] | apparent KD of MS2 coat protein [4] [nM]
AGGUACUUCAGGAGACAUGAGGAUCACCCAUGUUGAGUUAGCGAGGAUAUCGGUAACCAUUGUUAUGAGAAGGCGCAAACCAGA [Ex NG3 #42] (Eterna round: R96, puzzle: Exclusion NG 3) | 25.9 | 15 | 15.3 | – | – | –
AGGUCACAUGAGGAUCACCCAUGUCAGGAUAUCUACAUUGAAGCCUCGGCUUCAAUGUAGAGAAGGGACAAUUA [E1/6-B2] (Eterna round: R97, puzzle: Exclusion 1) | 209 | – | 72.2 | – | – | –
AGGUCACAUGAGGAUCACCCAUGUGAGGAUAUUUACUCAAGAGCUUCGGCUCUCAAGUGAAGAAGGCGCAAUGA [EX1 #53] (Eterna round: R97, puzzle: Exclusion 1) | 34.6 | – | 32.8 | – | – | –
AGGUGACAUGAGGAUCACCCAUGUAAGGAUAUACGGUUAGUGGAGAGUUGGAAGAGAGGUAGAAGGUACGGAGC [JR_Exclu1_Sub059] (puzzle: Exclusion 1) | – | – | – | 197 | – | –
AGGUGAGCCGUCAGGAUAUGCGUUCCGUAGGGUCAGCAGAAGGGACAUGAGGAUCACCCAUGUUUCGCACGUGG [Veraxedi] (Eterna round: R96, puzzle: Brourd's mod of Exclusion 4) | 76.5 | 23.5 | 31.5 | – | – | –
AGGUGAGCCGUCAGGAUAUGCGUUCCGUAGGGUCAGCAGAAGGGACAUGAGGAUCACCCAUGUUUCGCACGUGG [Veraxedi] (puzzle: Brourd's mod of Exclusion 4) | – | – | – | 31 | – | –
AGGUGCCUCUGGAAACAUGAGGAUCACCCAUGUUGAGUUAGCGAGGAUAUCGGUAACCAUUGUUAUGAGAAGGCGCAAACCAGA [Ex NG3 #38] (Eterna round: R96, puzzle: Exclusion NG 3) | 60.7 | 19.6 | 27.6 | – | – | –
AGGUGGAAGCAGGAUAUGCUUGUAUAAUUGAUAGCAGAAGGGCUAACAUGAGGAUCACCCAUGUAAGAGGUGUA [JR_E6_Sub058] (puzzle: Exclusion 6) | – | – | – | 177 | 340 | 206
AGGUGUAGAGGAUAUCUAUCCUCCCACAUGAGGAUCACCCAUGUCCUGGUCACCAAGGACGGAGAAGGCUACACCA [Omei Ex5 D19] (Eterna round: R97, puzzle: Exclusion 5) | 153 | – | 292 | – | – | –
AGGUGUAGAGGAUAUCUCUUCUCUCACAUGAGGAUCACCCAUGUCCUGGGCACCAAGGAGAGAGAAGGCUACACCA [Omei Ex5 D10] (Eterna round: R97, puzzle: Exclusion 5) | 72.7 | – | 271 | – | – | –
AGGUGUAGAGGAUAUCUCUUCUCUCACAUGAGGAUCACCCAUGUCCUGGUCACCAAGGAGAGAGAAGGCUACACCA [Omei Ex5 D9] (Eterna round: R97, puzzle: Exclusion 5) | 56.4 | – | 76.4 | – | – | –
AGGUGUAGAGGAUAUUCAUUCUUCCACAUGAGGAUCACCCAUGUCCCGGUCACCAGGGACGGAGAAGGCUACACCA [Omei Ex5 D26] (Eterna round: R97, puzzle: Exclusion 5) | 108 | – | 76.8 | – | – | –
AGGUGUCUCUGGAAACAUGAGGAUCACCCAUGUUGAGUUAGCGAGGAUAUCGGUAACCAUUGUUAUGAGAAGGCGCAAACCAGA [Ex NG3 #39] (Eterna round: R96, puzzle: Exclusion NG 3) | 14.8 | 18.3 | 25.4 | – | – | –
AGUAACAGAGGAUAUACUAUUUUAUGUGUUUAUUGUUUUGAACAUGAGGAUCACCCAUGUAGAAGGCUGAAUAA [JMF 95] (puzzle: Exclusion 2) | – | – | – | 24.5 | – | –
AGUAACAGAGGAUAUACUAUUUUAUGUGUUUGUUAUUUUAAACAUGAGGAUCACCCAUGUAGAAGGCUGAAUAA [JMF 84] (puzzle: Exclusion 2) | – | – | – | 21 | – | –
AGUAACAGAGGAUAUACUGUUUUAUGUGUUUGUUGUUUUAAACAUGAGGAUCACCCAUGUAGAAGGCUGAAUAA [JMF 87] (puzzle: Exclusion 2) | – | – | – | 18.8 | – | –
AGUAACCGUCACGAAAGUGAUGGUUACGCAAGCAAAUGUACAUGAGGAUCACCCAUGUCCUCAAUUGCUCGUCUUAU [Sensor 3 - 51] (puzzle: Sensor v3, turn-off variant 2) | – | – | – | 175 | 102 | 114

Sequence | apparent KD of MS2 coat protein (input ligand: FMN 200 uM) [nM] | apparent KD of MS2 coat protein [1] [nM] | apparent KD of MS2 coat protein (input ligand: none) [nM] | apparent KD of MS2 coat protein [2] [nM] | apparent KD of MS2 coat protein [3] [nM] | apparent KD of MS2 coat protein [4] [nM]
AGUAACUAUCACGAAAGUGAUAGUUACAACAAGUGAUAAACAUGAGGAUCACCCAUGUCCUCAUUUGUUCGUCUUAU [Sensor 3 - 14] (puzzle: Sensor v3, turn-off variant 2) | – | – | – | 373 | 240 | 225
AGUAACUAUCACGAAAGUGAUAGUUACACAAGUAGUGAAACAUGAGGAUCACCCAUGUCCUCAUUUGCUCGUCUUAU [Sensor 3 - 33] (puzzle: Sensor v3, turn-off variant 2) | – | – | – | 168 | 461 | 925
AGUAACUAUCACGAAAGUGAUAGUUACACAAGUGUAAUAACAUGAGGAUCACCCAUGUCCUCAUUUGCUCGUCUUAU [Sensor 3 - 34] (puzzle: Sensor v3, turn-off variant 2) | – | – | – | 162 | 149 | 33.6
AGUACUAACACGAAAGUGUUAGUAAAAUAAGCUUGUGGUACAUGAGGAUCACCCAUGUCCUCAUAAGCUCGUCUUAU [Mat - Sensor v3 - Turn-off var 2 - D42] (puzzle: Sensor v3, turn-off variant 2) | – | – | – | 78.8 | 21.6 | 20.6
AGUACUAACACGAAAGUGUUAGUACAACAAGCUUGUGAAACAUGAGGAUCACCCAUGUCCUCAUAAGCUCGUCUUAU [salish99_TOv2_r3_042] (puzzle: Sensor v3, turn-off variant 2) | – | – | – | 463 | 13.7 | 11.9
AGUACUAACACGAAAGUGUUAGUACAAUAAGCUAGUGGAACAUGAGGAUCACCCAUGUCCUCAUUAGCUCGUCUUGG [Mat - Sensor v3 - Turn-off var 2 - D40] (puzzle: Sensor v3, turn-off variant 2) | – | – | – | 19.6 | 16.4 | 14.6
AGUACUAACACGAAAGUGUUAGUACAAUAAGCUUGUGAAACAUGAGGAUCACCCAUGUCCUCAUUAGCUCGUCUUAU [salish99_TOv2_r3_050] (puzzle: Sensor v3, turn-off variant 2) | – | – | – | 451 | 184 | 172
AGUACUAACACGAAAGUGUUAGUACAAUAAGCUUGUGCAACAUGAGGAUCACCCAUGUCCUCAUAAGCUCGUCUUAU [salish99_TOv2_r3_044] (puzzle: Sensor v3, turn-off variant 2) | – | – | – | 75.2 | 544 | 574
AGUACUAACACGAAAGUGUUAGUACAAUAAGCUUGUGUUACAUGAGGAUCACCCAUGUCCUCAUAAGCUCGUCUUAA [Mat - Sensor v3 - Turn-off var 2 - D49] (puzzle: Sensor v3, turn-off variant 2) | – | – | – | 200 | 39.9 | 47.4
AGUACUAACACGAAAGUGUUAGUACUAUAAGCUUGUGUAACAUGAGGAUCACCCAUGUCCUCAUAAGCUCGUCUUAU [Mat - Sensor v3 - Turn-off var 2 - D100] (puzzle: Sensor v3, turn-off variant 2) | – | – | – | 131 | 58.3 | 61.2
AGUACUAACACGAAAGUGUUAGUCCAAUAAGCUUGUGAAACAUGAGGAUCACCCAUGUCCUCAUAAGCUCGUCUUAU [salish99_TOv2_r3_038] (puzzle: Sensor v3, turn-off variant 2) | – | – | – | 454 | 17.4 | –
AGUACUAACACGAUAGUGUUAGUACUAUAAGCUUGUGUUACAUGAGGAUCACCCAUGUCCUCAUAAGCUCGUCUUAA [Mat - Sensor v3 - Turn-off var 2 - D65] (puzzle: Sensor v3, turn-off variant 2) | – | – | – | 420 | 36.9 | 38.1
AGUACUAACACGCGAGUGUUAGUACAAUAAGCUUGUGAAACAUGAGGAUCACCCAUGUCCUCAUAAGCUCGUCUUAU [salish99_TOv2_r3_059] (puzzle: Sensor v3, turn-off variant 2) | – | – | – | 674 | 16.7 | 14.5
AGUACUAACACGCGUGUGUUAGUACAAUAAGCUUGUGAAACAUGAGGAUCACCCAUGUCCUCAUAAGCUCGUCUUAU [salish99_TOv2_r3_076] (puzzle: Sensor v3, turn-off variant 2) | – | – | – | 608 | 15.7 | 13.7
AGUACUAACACGCUUGUGUUAGUACAAUAAGCUUGUGAAACAUGAGGAUCACCCAUGUCCUCAUAAGCUCGUCUUAU [salish99_TOv2_r3_072] (puzzle: Sensor v3, turn-off variant 2) | – | – | – | 654 | 17 | 15.9
AGUACUAACACGGAAGUGUUAGUACAAUAAGCUUGUGUUACAUGAGGAUCACCCAUGUCCUCAUAAGCUCGUCUUAA [Mat - Sensor v3 - Turn-off var 2 - D62] (puzzle: Sensor v3, turn-off variant 2) | – | – | – | 487 | 48.4 | 40.2
